Patent US20240139115A1, “Novel Method for Preparation of Nanoparticles Comprising Cell Penetrating Peptides” (CELLPEPT SWEDEN AB, priority 2021, published 2024)
Where no end group is shown, it is not given here. [ ]: non-standard residue; d: D form. The star is where a group is joined. Stearoyl = CCCCCCCCCCCCCCCCCC(=O)*; R8 = C=CCCCCCC[C@@](C)(N)C(=O)O; Orn = NCCC[C@H](N)C(=O)O

Tests used:
[1] = system: human primary keratinocytes; experiment: Transfection with EGFP-coding mRNA/CPP complexes; type: cell-based; conditions: CPP solutions in mixture of organic solvents; 200 ng mRNA, 520 nM CPP, 20 h; FIG. 3
Procedure: The complexes of 200 ng of mRNA with 520 nM CPP were added into culture medium above cells per well of 24-well plate for 20 h. For the delivery and expression of EGFP, mRNA complexes were assembled with NF71 (dissolved at 1 mM concentration in ethanol/DMSO/trimethylene carbonate 78/20/2) or PF14 (PF14o—dissolved at 1 mM concentration in ethanol/DMSO, or in water—PF14w).
The CPP nanoparticles with mRNA are formed in a similar manner with pDNA. mRNA at concentration 10 μg/ml is complexed with 10 μM PF14 CPP in Milli-Qwater. If required, Ca or Mg ions are incorporated in CPP-mRNA nanoparticles as described above. Unlike other particle solutions described above, CPP-mRNA 10× solutions are directly added into growth medium where cells have been incubated. The preferred N/P ratio (“charge ratio”) of CPP to mRNA is 2. Depending on the charge of used CPP, type of cells and experiment, N/P ratio can be varied in the range 1.5 to 4. For delivery of mRNA into human primary cells, preferentially Mg ions are incorporated in CPP nanoparticles.

[2] = Transmission electron microscopy (TEM) of size and shape of CPP particles; type: physicochemical
Procedure: (§1) The diameter and zeta potential of CPP nanoparticles may be measured using dynamic light scattering (DLS) or nanoparticle tracking analysis system (NTA) (1), (4) (using 0.01 mM peptide). The morphology of NP is analysed by transmission electron microscopy (TEM) (11), scanning electron microscopy (SEM) or atomic force microscopy (AFM) using 0.1 or 0.01 mM peptide solution.
Analysis of the size and shape of CPP nanoparticles and their complexes with cargo nucleic acids by transmission electron microscopy (TEM) confirmed data from DLS analysis. Depending on the solvent used for preparation of 1 mM peptide solutions, the particles of CPP were largely different.

[3] = Dynamic light scattering (DLS) size and polydispersity of CPP particles after dilution in water; type: physicochemical; conditions: PF14 in isopropanol/DMSO/trimethylene carbonate (90/9/1), further 10-fold dilution
Procedure: as §1
The physical characteristics (diameter and zeta-potential) of the peptide micelles/aggregates/nanoparticles were analysed by dynamic light scattering (DLS) using a ZetaView (Particle Metrix, Germany) or ZetasizerNano ZS apparatus (Malvern Instruments, UK) at 10 μM concentration in water.
DLS analysis of the size of CPP particles forming after 100-fold dilution of 1 mM peptide solution in Milli-Q water or organic solvents (ambient temperature) is provided in Table 1.
The optimal size of nanoparticles to be used for drug delivery in vivo is in range of 100 nm (between 10 and 200 nm), and the lack of large aggregates is highly essential. In order to analyse the size of CPP clusters that form in water, DLS traces were measured by Malvern Zetasizer Nano ZS. Four consecutive measurements were performed with each sample for the calculation of the size and polydispersity of the forming CPP particles.

[4] = system: HeLa pLuc705 cells; experiment: Splicing correction luciferase assay (Kole's assay); conditions: hPep3 dissolved in the mixture of dimethyl sulfoxide; 100 nM SCO-705, 500 nM peptide, 24 h; FIG. 5

Substance	transfection of EGFP mRNA and expression of EGFP [1]	aggregates present in specimen ([2]; PF14 in isopropanol/DMSO/trimethylene carbonate (90/9/1) at 1 mM, diluted in water to 0.1 mM, TEM)	diameter of spherical nanoparticles ([2]; PF14 in isopropanol/DMSO/trimethylene carbonate (90/9/1) at 1 mM, quick dilution in water to 0.1 mM, TEM)	larger PF14 particles observed in TEM images ([2]; PF14 in isopropanol/DMSO/trimethylene carbonate (90/9/1), 0.1 mM in water)	average diameter of uniform NP [3] [nm]	efficiency of nanoparticles with SCO cargo compared with water-dissolved hPep3 [4]
NickFect 71 (Stearoyl-HHYHHGXILLKALKALAKAIL-NH2; not fully specified (residue 7); printed as HHYHHGObILLKALKALAKAIL; also: Gly6 joined to the Orn7 side-chain delta-amino instead of its alpha-amino) [NF71]	enable transfection	–	–	–	–	–
PepFect 14 (Stearoyl-AGYLLGKLL[Orn][Orn]LAAAAL[Orn][Orn]LL-NH2) [PF14, Stearyl (C18)-…OOLAAAALOOLL, C-terminal amide]	enable transfection	No aggregates	40-60 nm	100-150 nm	~100	–
hPep3 (L[R8][dK]LAKA[R8]AKLLKA[R8]AKAL; staple (positions not given here); also: three R8 olefin residues, staple pairing not given here)	–	–	–	–	–	same efficiency
